Test [1] addresses tEGFR-ω fusion (extracellular and transmembrane regions of the EGF receptor fused to the ω fragment). In words: cell-based or functional assay.
Test [2] has as its target ω-NLS (ω fragment fused to a triplet SV40 nuclear localization signal). In words: cell-based or functional assay.

A value given as a limit tells only on which side of the number the result lay.

Chain of ω-NLS (ω fragment fused to a triplet SV40 nuclear localization signal) (P00722 other isoform, or with tags, fused parts or gaps): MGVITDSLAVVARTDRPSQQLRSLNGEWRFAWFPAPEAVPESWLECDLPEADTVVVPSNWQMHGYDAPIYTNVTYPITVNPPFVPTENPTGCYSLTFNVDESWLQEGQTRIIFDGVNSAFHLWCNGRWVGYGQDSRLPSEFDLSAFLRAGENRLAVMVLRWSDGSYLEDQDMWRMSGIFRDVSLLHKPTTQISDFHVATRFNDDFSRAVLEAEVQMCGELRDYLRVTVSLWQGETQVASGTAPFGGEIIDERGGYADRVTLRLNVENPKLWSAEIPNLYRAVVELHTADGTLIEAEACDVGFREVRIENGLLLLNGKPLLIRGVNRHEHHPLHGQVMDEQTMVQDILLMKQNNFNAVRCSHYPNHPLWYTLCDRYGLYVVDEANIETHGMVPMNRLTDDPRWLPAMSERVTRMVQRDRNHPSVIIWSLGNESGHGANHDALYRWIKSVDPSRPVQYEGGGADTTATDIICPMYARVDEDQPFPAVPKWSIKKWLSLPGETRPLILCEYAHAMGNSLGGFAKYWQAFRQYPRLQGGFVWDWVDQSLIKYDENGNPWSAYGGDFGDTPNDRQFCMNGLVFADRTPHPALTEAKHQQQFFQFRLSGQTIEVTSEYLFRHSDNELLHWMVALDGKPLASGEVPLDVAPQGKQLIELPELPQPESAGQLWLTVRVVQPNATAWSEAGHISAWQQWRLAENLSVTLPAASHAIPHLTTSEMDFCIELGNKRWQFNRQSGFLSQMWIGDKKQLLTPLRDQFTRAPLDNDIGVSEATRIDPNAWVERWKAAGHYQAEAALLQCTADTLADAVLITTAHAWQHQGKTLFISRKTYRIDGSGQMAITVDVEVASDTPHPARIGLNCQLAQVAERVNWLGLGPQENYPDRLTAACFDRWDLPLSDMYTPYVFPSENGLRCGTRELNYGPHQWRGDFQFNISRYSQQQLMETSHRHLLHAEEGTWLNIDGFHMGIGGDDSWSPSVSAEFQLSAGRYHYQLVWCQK
Chain of tEGFR-ω fusion (extracellular and transmembrane regions of the EGF receptor fused to the ω fragment) (P00722 other isoform, or with tags, fused parts or gaps): as above

Regarding “C1A domain of PKCγ fused to GFP-α (wild type α peptide) (from UniProt P42212 1-238)”, the increase in β-galactosidase activity on PMA (NIH 3T3 cells, membrane translocation assay) in test [1] was < 10 % increase.

In the case of “PH domain of AKT fused to the GFP-α chimera (from UniProt P42212 1-238)”, in test [1], the increase in β-galactosidase activity on PDGF, luminescent assay in 3T3 cells is 5 fold; the increase in β-galactosidase activity on insulin, luminescent assay in 3T3 cells was 2.5 fold; the increase in β-galactosidase activity on osmotic shock (sorbitol), luminescent assay in 3T3 cells was 8 fold.

As to “C1A domain of PKCγ fused to the GFP-α H31R point mutant (from UniProt P42212 1-238)”, the fold induction of β-galactosidase activity on PMA (NIH 3T3 cells, membrane translocation assay) (fold induction) in test [1] turned out to be 7.

As to “glucocorticoid receptor fused to the amino-terminus of the GFP-α fusion (from UniProt P42212 1-238)”, in test [2], the change in β-galactosidase activity with dexamethasone, DDAO substrate, flow cytometry of live cells lay in the range of 5 to 10 fold change; the difference in β-galactosidase activity at 30 min of dexamethasone (gain of signal assay) was 100%; the β-galactosidase activity after 1 µM dexamethasone for 3 hours (gain of signal assay) (fold induction) is 3.5. In test [1], this substance yielded a change in β-galactosidase activity with dexamethasone, DDAO substrate, flow cytometry of live cells of 5 to 10 fold change; a difference in β-galactosidase activity at 30 min of dexamethasone (loss of signal assay) of 25%; a β-galactosidase activity after 1 µM dexamethasone for 3 hours (loss of signal assay) of 5 fold.

Take “NES-GFP-α-NLS protein (MEK nuclear export signal, GFP, α peptide, triplet SV40 NLS) (from UniProt P42212 1-238)”: the β-galactosidase activity after leptomycin B for 2 hours (gain of signal assay, luminescent substrate) (fold increase) in test [2] was found to be 3.5. Besides, the β-galactosidase activity after leptomycin B (loss of signal assay) (fold decrease) in test [1] was found to be 5.

The values above are taken from patent publication US20050287522A1.
